Assay results published in patent publication US20250109209A1.

Assays:
Cyno TL1A (cyno) [1] = target: Cyno TL1A (cyno) (UniProt G7PRK8); assay: SPR, representative sensorgram with Cyno TL1A
human TL1A (human) [2] = target: human TL1A (human) (UniProt O95150); assay: selectivity ELISA: antibody pre-incubated with TL1A, inhibition of TL1A binding to plate-coated DcR3
human TL1A (human) [3] = target: human TL1A (human) (UniProt O95150); assay: SPR, representative sensorgram with Human TL1A
human TL1A (human) [4] = target: human TL1A (human) (UniProt O95150); assay: SPR, mAb format, average
mouse TL1A (mouse) = mouse TL1A (mouse) (UniProt Q5UBV8); assay: SPR, mAb format, average
Cyno TL1A (cyno) [5] = target: Cyno TL1A (cyno) (UniProt G7PRK8); assay: SPR, mAb format, average
human TL1A (human) [6] = target: human TL1A (human) (UniProt O95150); assay: selectivity ELISA: antibody pre-incubated with TL1A, inhibition of TL1A binding to plate-coated DR3

human TL1A (human), sequence (O95150 72-251 limits assumed): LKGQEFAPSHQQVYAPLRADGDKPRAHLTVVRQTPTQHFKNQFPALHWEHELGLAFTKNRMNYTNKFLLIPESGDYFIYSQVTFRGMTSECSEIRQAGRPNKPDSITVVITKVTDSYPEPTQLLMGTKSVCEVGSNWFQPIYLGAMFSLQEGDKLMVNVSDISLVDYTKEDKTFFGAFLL
Cyno TL1A (cyno), sequence (G7PRK8 entry or part of it): as the sequence (O95150 72-251 limits assumed) above, with F39L, I78V counted along it
mouse TL1A (mouse), sequence (Q5UBV8 76-252 V180M/M218T limits assumed): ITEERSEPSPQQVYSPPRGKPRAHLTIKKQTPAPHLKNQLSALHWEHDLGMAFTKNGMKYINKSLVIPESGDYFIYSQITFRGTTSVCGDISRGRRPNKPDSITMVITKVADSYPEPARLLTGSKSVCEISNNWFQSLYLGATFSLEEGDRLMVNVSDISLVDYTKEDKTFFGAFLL

Kd (Cyno TL1A (cyno) [1]): 0.114 nM
IC50 (human TL1A (human) [2]): 3.6 µg/mL
Kd (human TL1A (human) [3]): 0.339 nM
Kd (human TL1A (human) [4]): 0.365 nM
Kd (mouse TL1A (mouse)): 81.9 µM
Kd (Cyno TL1A (cyno) [5]): 0.09 nM
IC50 (human TL1A (human) [6]): 6.3 µg/mL
B1: Heron2B (antibody, INN chains, looked up, V domains shown)
VH: QVQLVQSGAEVKKPGASVKVSCKASGFDIQDTYMHWVKQRPGQGLEWMGRIDPASGHTKYDPKFQVRVTITRDTSTSTVYLELSSLRSEDTAVYYCARSGGLPDVWGQGTTVTVSS
VL: EIVLTQSPGTLSLSPGERATLSCRASSSVSYMYWYQQKPGQAPRPLIYATSNLASGIPDRFSGSGSGTDFTLTISRLEPEDFAVYYCQQWEGNPRTFGGGTKLEIK
